Entries after “also recorded” stand apart in the source; their conditions may differ.
Tests used:
EphA3/ephrin-A5 complex = target: T1, EphA3/ephrin-A5 complex (Homo sapiens, UniProt P29320+P52803); assay: In vitro binding (Protein-A pull-down) assay
T1 construct: incubated with Fc-tagged ectodomains of Eph-A3, EphB2, EphB4 and ephrin-A2, ephrin-A5, ephrin-B2 (R&D systems)
T1 sequence (P29320 21-541 limits assumed): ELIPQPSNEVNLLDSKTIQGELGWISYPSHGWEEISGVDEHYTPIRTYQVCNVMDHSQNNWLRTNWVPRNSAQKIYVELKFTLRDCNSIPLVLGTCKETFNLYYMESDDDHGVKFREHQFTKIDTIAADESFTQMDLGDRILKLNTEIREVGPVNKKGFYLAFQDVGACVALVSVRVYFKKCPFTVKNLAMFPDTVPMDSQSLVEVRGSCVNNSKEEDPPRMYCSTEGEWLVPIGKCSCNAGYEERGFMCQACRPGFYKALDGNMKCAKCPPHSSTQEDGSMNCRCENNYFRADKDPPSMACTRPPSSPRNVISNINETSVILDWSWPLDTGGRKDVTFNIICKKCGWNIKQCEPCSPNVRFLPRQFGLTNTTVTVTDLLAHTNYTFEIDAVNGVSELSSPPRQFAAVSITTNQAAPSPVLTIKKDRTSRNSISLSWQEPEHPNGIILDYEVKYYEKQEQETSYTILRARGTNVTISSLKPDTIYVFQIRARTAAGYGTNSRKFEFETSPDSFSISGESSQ
T1 sequence (P52803 21-203 limits assumed): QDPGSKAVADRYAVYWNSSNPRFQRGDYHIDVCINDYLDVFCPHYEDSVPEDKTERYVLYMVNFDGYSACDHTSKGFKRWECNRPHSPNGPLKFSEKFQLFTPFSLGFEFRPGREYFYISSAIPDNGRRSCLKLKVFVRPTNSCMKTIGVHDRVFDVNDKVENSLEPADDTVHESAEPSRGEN
Experimental: (§1) Pull-down experiments were done as follows: ADAM10D+C, ADAM17D+C w.t. or the alanine mutants (˜15 μg) were incubated with Fc-tagged ectodomains of Eph-A3, EphB2, EphB4 and ephrin-A2, ephrin-A5, ephrin-B2 (R&D systems) at 4° C. for 30 min in 500 μL of binding buffer containing 10 mM HEPES (pH 7.4), 150 mM NaCl and 0.05% of Triton X-100. To test binding to the preformed EphA3/ephrin-A5 complex, 5 μg of the untagged ephrin-A5 was incubated with Fc tagged EphA3 for 30 min at 4° C. followed by the addition of ADAM10. The proteins were incubated for an additional 30 min., when Protein-A-Sepharose (Amersham) beads were added to the reaction mixture and shaken at 4° C. for 2h. The beads were then harvested by centrifugation, washed once with 500 μl of binding buffer and the bound proteins were separated on a 10-20% gradient polyacrylamide gel. The binding of the individual ADAM domains was carried out likewise using 15 μg of the disintegrin and 8 μg of the cysteine-rich domain.

EphB4/ephrin-B2 complex = target: T2, EphB4/ephrin-B2 complex (Homo sapiens, UniProt P52799+P54760); assay: In vitro binding (Protein-A pull-down) assay; settings: Protein-A capture
T2 construct: incubated with Fc-tagged ectodomains of Eph-A3, EphB2, EphB4 and ephrin-A2, ephrin-A5, ephrin-B2 (R&D systems); purchased R&D systems
T2 sequence (P52799 28-229 limits assumed): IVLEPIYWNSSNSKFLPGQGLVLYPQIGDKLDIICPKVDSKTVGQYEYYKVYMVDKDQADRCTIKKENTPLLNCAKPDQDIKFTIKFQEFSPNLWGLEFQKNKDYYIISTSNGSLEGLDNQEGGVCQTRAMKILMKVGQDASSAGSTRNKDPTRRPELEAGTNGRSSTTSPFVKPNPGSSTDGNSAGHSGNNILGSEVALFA
T2 sequence (P54760 16-539 limits assumed): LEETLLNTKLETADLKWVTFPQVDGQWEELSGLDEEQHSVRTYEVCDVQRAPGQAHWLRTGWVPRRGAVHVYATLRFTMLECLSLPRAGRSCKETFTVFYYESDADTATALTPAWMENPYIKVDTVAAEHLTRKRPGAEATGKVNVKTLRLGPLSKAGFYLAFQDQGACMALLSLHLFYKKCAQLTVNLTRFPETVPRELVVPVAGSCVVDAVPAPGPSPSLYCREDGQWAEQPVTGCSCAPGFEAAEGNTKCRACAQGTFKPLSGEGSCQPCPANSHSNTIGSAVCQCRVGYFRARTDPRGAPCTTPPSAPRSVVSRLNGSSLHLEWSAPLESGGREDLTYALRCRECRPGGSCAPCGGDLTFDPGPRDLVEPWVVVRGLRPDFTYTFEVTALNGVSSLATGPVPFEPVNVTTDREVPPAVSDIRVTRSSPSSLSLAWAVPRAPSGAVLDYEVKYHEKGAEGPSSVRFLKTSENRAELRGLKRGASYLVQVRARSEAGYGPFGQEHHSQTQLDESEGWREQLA
Experimental: as §1

ectodomain of EphA3 = target: T3, ectodomain of EphA3 (Homo sapiens, UniProt P29320); assay: In vitro binding (Protein-A pull-down) assay; settings: EphA3-Fc alone, without ephrin
T3 construct: incubated with Fc-tagged ectodomains of Eph-A3, EphB2, EphB4 and ephrin-A2, ephrin-A5, ephrin-B2 (R&D systems); purchased R&D systems
T3 sequence (P29320 21-541 limits assumed): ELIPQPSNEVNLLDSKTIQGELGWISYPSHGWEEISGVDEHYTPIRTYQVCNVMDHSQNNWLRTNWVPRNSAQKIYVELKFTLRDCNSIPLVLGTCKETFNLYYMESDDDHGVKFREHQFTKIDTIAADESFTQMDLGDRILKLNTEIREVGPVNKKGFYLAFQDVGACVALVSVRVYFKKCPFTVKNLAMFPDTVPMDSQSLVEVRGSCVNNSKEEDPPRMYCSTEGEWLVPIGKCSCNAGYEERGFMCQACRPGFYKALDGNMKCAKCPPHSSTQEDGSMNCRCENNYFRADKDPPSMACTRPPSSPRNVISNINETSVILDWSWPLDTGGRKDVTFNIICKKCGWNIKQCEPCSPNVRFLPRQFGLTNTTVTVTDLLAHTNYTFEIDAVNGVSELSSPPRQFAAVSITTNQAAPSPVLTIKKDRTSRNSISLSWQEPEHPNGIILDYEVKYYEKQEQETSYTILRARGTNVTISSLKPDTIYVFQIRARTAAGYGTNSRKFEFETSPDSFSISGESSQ
Experimental: as §1

ephrin-A2 = target: T4, ephrin-A2 (Homo sapiens, UniProt O43921); assay: In vitro binding (Protein-A pull-down) assay; settings: ephrin-Fc captured on Protein A Sepharose
T4 construct: incubated with Fc-tagged ectodomains of Eph-A3, EphB2, EphB4 and ephrin-A2, ephrin-A5, ephrin-B2 (R&D systems); purchased R&D systems
T4 sequence (O43921 25-188 limits assumed): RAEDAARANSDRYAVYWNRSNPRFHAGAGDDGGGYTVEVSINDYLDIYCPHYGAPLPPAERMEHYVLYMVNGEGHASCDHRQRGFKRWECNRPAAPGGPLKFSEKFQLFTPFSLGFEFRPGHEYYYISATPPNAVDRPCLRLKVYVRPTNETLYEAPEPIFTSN
Experimental: as §1

ephrin-A1 = target: T5, ephrin-A1 (Homo sapiens, UniProt P20827); assay: In vitro binding (Protein-A pull-down) assay; settings: ephrin-Fc captured on Protein A Sepharose
T5 sequence (P20827 19-182 limits assumed): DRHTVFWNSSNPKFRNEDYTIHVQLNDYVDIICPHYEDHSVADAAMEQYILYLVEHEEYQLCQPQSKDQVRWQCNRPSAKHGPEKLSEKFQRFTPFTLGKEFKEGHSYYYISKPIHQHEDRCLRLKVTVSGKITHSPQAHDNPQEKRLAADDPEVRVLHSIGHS

[1] = target: T6, EphA3/ephrin-A5 Fc complex (Homo sapiens, UniProt P29320+P52803); assay: HTRF / FRET assay of EphA3/ephrin-A5/ADAM10D+C complex formation; type: binding; settings: unlabelled protein at increasing concentrations, 320 nM complex
T6 construct: Fc fusion proteins of the ephrin-A5 and EphA3 extracellular domains fused to the hinge and Fc region of human IgG1 were produced as described
T6 sequence (P29320 21-541 limits assumed): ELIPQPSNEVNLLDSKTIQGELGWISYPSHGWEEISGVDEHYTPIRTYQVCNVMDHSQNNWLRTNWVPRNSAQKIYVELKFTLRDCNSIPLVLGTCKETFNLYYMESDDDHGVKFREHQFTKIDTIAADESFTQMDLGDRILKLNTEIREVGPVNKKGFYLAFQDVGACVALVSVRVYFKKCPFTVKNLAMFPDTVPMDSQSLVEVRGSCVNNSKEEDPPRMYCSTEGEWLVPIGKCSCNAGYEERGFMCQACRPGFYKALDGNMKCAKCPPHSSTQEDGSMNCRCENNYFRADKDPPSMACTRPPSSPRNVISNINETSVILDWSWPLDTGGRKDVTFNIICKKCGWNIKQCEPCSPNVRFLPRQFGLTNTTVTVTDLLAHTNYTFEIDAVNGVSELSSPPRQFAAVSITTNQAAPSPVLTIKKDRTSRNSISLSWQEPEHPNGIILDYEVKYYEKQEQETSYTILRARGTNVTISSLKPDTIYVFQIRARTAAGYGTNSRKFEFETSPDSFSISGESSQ
T6 sequence (P52803 21-203 limits assumed): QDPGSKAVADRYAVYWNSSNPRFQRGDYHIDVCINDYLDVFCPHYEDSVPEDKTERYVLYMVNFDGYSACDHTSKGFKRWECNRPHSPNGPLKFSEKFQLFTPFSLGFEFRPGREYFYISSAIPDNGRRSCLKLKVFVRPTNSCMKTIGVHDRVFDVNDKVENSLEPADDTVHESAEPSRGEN
Experimental: FIG. 6. Fluorescence Energy Transfer (RET) analysis monitoring the formation of EphA3/ephrin-A5/ADAM10D+C complexes. • A) The proposed screening approach for inhibitors of the complex formation is based on a Homogeneous Time Resolved Fluorescence (HTRF™) Assay using a Eu^3+ chelate labeled donor and a XL665 labeled acceptor protein. Interactions between ADAM10 and its substrate, the EphA3/ephrinA5 complex are measured using (normalized) emission at 665 nm: the interaction brings the labels into proximity and triggers fluorescence resonance energy transfer (FRET), which initiates a chemical reaction cascade to produce an amplified fluorescent signal. […]
In this regard, screening or identification of inhibitors of complex formation is based on high-throughput homogeneous time resolved fluorescence (HTRF™) technology utilising donor and acceptor fluorescence labels that are conjugated to Fc-tagged proteins. An interaction between proteins brings the labels into proximity and triggers fluorescence resonance energy transfer (FRET), which initiates a chemical reaction cascade to produce an amplified fluorescent signal. […]
The proposed drug screening approach is based on homogeneous time resolved fluorescence HTRF™ technology utilising donor and acceptor fluorescence labels that are conjugated to Fc-tagged proteins. […]

amount of EphA3-bound (complexed) ephrin-A5 (EphA3/ephrin-A5 complex; single-chain ephrin-A5 lacking Fc, captured via EphA3-Fc): notably increased
binding to EphA3 ectodomain (ectodomain of EphA3): no interaction was seen
binding to ephrin-A2 (ephrin-A2): bound
binding to ephrin-A1 (ephrin-A1): bound
inhibition of the labelled ADAM10D+C - EphA3/ephrin-A5 interaction (A665/A620) [1]: competitive inhibitor
B1: ADAM10D+C: recombinant bovine Adam10 disintegrin and cysteine-rich domains (residues 455-646), Fc tag removed (protein)
chain: SGQPICGNGMVEQGEECDCGYSDQCKDECCYDANQPEGKKCKLKPGKQCSPSQGPCCTAHCAFKSKTEKCRDDSDCAKEGICNGITALCPASDPKPNFTDCNRHTQVCINGQCAGSICEKHGLEECTCASSDGKDDKELCHVCCMKKMEPSTCASTGSVQWNKYFLGRTITLQPGSPCNDFRGYCDVFMRCR
binding to EphA3/ephrin-A5 complex (EphA3/ephrin-A5 complex; EphA3-Fc plus untagged ephrin-A5): readily bound and formed a stable complex; also recorded: binds
binding to EphB4/ephrin-B2 complex (EphB4/ephrin-B2 complex): little or no association; also recorded: does not bind

Reference: patent US7960513B2, “Antibody against a human ADAM protease” (Monash University, priority 2004, dated 2011)
